Publication PMC6917504 (Biochemistry, 2017)

B1: Human concentrative nucleoside transporter 3 (hCNT3, SLC28A3), wild type, purified from High Five insect cells (natural protein, UniProt Q9HAS3 1-616, looked up)
chain: MELRSTAAPRAEGYSNVGFQNEENFLENENTSGNNSIRSRAVQSREHTNTKQDEEQVTVEQDSPRNREHMEDDDEEMQQKGCLERRYDTVCGFCRKHKTTLRHIIWGILLAGYLVMVISACVLNFHRALPLFVITVAAIFFVVWDHLMAKYEHRIDEMLSPGRRLLNSHWFWLKWVIWSSLVLAVIFWLAFDTAKLGQQQLVSFGGLIMYIVLLFLFSKYPTRVYWRPVLWGIGLQFLLGLLILRTDPGFIAFDWLGRQVQTFLEYTDAGASFVFGEKYKDHFFAFKVLPIVVFFSTVMSMLYYLGLMQWIIRKVGWIMLVTTGSSPIESVVASGNIFVGQTESPLLVRPYLPYITKSELHAIMTAGFSTIAGSVLGAYISFGVPSSHLLTASVMSAPASLAAAKLFWPETEKPKITLKNAMKMESGDSGNLLEAATQGASSSISLVANIAVNLIAFLALLSFMNSALSWFGNMFDYPQLSFELICSYIFMPFSFMMGVEWQDSFMVARLIGYKTFFNEFVAYEHLSKWIHLRKEGGPKFVNGVQQYISIRSEIIATYALCGFANIGSLGIVIGGLTSMAPSRKRDIASGAVRALIAGTVACFMTACIAGILSSTP
B2: hCNT3 Y266C/F463C double cysteine mutant (natural protein, human, UniProt Q9HAS3 1-691, looked up)
chain: MELRSTAAPRAEGYSNVGFQNEENFLENENTSGNNSIRSRAVQSREHTNTKQDEEQVTVEQDSPRNREHMEDDDEEMQQKGCLERRYDTVCGFCRKHKTTLRHIIWGILLAGYLVMVISACVLNFHRALPLFVITVAAIFFVVWDHLMAKYEHRIDEMLSPGRRLLNSHWFWLKWVIWSSLVLAVIFWLAFDTAKLGQQQLVSFGGLIMYIVLLFLFSKYPTRVYWRPVLWGIGLQFLLGLLILRTDPGFIAFDWLGRQVQTFLECTDAGASFVFGEKYKDHFFAFKVLPIVVFFSTVMSMLYYLGLMQWIIRKVGWIMLVTTGSSPIESVVASGNIFVGQTESPLLVRPYLPYITKSELHAIMTAGFSTIAGSVLGAYISFGVPSSHLLTASVMSAPASLAAAKLFWPETEKPKITLKNAMKMESGDSGNLLEAATQGASSSISLVANIAVNLIAFLALLSCMNSALSWFGNMFDYPQLSFELICSYIFMPFSFMMGVEWQDSFMVARLIGYKTFFNEFVAYEHLSKWIHLRKEGGPKFVNGVQQYISIRSEIIATYALCGFANIGSLGIVIGGLTSMAPSRKRDIASGAVRALIAGTVACFMTACIAGILSSTPVDINCHHVLENAFNSTFPGNTTKVIACCQSLLSSTVAKGPGEVIPGGNHSLYSLKGCCTLLNPSTFNCNGISNTF

Tests used:
SEC = biological target: the molecule itself; assay: SEC
cross-linking = biological target: the molecule itself; assay: cross-linking

Row | Protein | stoichiometry N (SEC) | stoichiometry N (cross-linking)
1 | B1 | 3 | –
2 | B2 | – | 3
